Changes are numbered by the printed parent chain. In names and notes the source's numbering stands.
B1: 14H10.2C9-hIgG4 (S228P) (antibody, V domains shown)
VH: QIQLVQSGPELKKPGETVKISCKASGYTFTTYGMGWVKQAPGKDLKWMGWINTYSGVPTYADDFKGRFAFSLETSASTAYLQISNLKNEDTATYFCSTPYEYDGAYWGQGTLVTVSA
VL: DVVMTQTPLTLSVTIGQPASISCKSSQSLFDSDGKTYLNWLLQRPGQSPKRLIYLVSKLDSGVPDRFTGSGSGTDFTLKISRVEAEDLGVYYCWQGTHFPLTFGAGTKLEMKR
notes: also called QC200137; IMTAB0172
B2: 846.1H12-hIgG4(S228P) (antibody, V domains shown)
VH: QIQLVQSGPELKKPGETVKISCKASGYTFTNFGMNWVKQAPGKGLKWMGWINTYTGEPSYADDFKGRFAFSLETSASTAYLQINNLKNEDIATYFCARWGGYAGDYYAMDYWGQGTSVTVSS
VL: NIMMTQSPSSLAVSAGQKVTMSCKSSQSVLYSSSQKNYLAWYQQKPGQSPKLLIYWASTRESGVPDRFSGSGSGTDFTLTISSVQPEDLAVYYCHQYLSSLTFGAGTKLELK
notes: also called F846C.1H12; QC200172 IMTAB0196
B3: TB006 (antibody, human IgG4 S228P, kappa, V domains shown)
VH: QVQLVQSGAEVKKPGASVKVSCKASGYSFTNYYMHWVRQAPGQRLEWMGWIYPGSGNTNYNEKFQGRVTITADTSASTAYMELSSLRSEDTAVYYCSTAPGGFDVWGQGTTVTVSS
VL: DIVMTQTPLSLSVTPGQPASISCKSSKSLLHSDGITYLYWYLQKPGQSPQLLIYRMSNLASGVPDRFSGSGSGTDFTLKISRVEAEDVGVYYCAQMLEFPLTFGQGTKLEIKR
notes: also called hTB006; hTB006Ab
B4: 20D11.2C6-hIgG4(S228P) (antibody, V domains shown)
VH: EVQLQQSGPELVKPGASVKISCKASGYTFTDFYINWVKQSHGKSLEWIGDINPKNGGINYNPKFKIKATLTVDKSSSTSYMDLRGLTSEDSAVYYCTSGYGFPYWGQGTLVTVSA
VL: DIQMNQSPSSLSASLGDTITITCRASQNIYIWLSWYQQKPGNIPKLLIYKASNLHTGVPSRFSGSGSGTDFTLTISTLQPEDIATYFCLQGQSYPLTFGAGTKLEMKR
notes: also called QC200083
B5: 846.1F5-hIgG4(S228P) (antibody, V domains shown)
VH: B2 VH with F32Y, I91M, A103D
VL: B2 VL with Q17E, S34N, S69T
notes: also called F846C.1F5; QC200110
B6: 846T.16B5-hIgG4(S228P) (antibody, V domains shown)
VH: B2 VH with F32Y, S59A, I91M, A103D
VL: B2 VL with Q17E, S34N, S69T, P86A
notes: also called F846T.16B5; F846TC.16B5
B7: 846T.14A2-hIgG4(S338P) (antibody, V domains shown)
VH: QIQLVQSGPELKKPGETVKISCKASGYTFTNYGMNWVKQAPGKGLKWMGWINTYTGEPTYAGDLKGRFAFSLETSASTAYLQINNLKNEDTATYFCVRYTMDYWGQGTSVTVSS
VL: QAVVTQESALTTSPGETVTLTCRSSTGAVTTSNYANWVQEKPDHLFTGLIGGINNRVPGVPARFSGSLIGDKAALTITGAQTEDEAIYFCALWYSNHWVFGGGTKLTVL
notes: also called F846TC.14A2; QC200122
B8: 84712F12-hIgG4(S288P) (antibody, V domains shown)
VH: QIQLVQSGPELKKPGETVKISCKASGYTFTNYGMNWVKQAPGKGLKWMGWINTYTGEPTYVDDFKGRFAFSLETSASTAYLRINNLKNEDTATYFCAKFGNYVGAMDYWGQGTSVTVSS
VL: DIQVIQSPSSLSASLGDTITITCHASQNINVWLSWYQQKPGNIPKLLIYKASNLHTGVPSRFSGSGSGTGFTLTISSLQPEDIATYYCQQGQSYPYTFGGGTKLELK
notes: also called 847.12F12-hIgG4 (S228P); F847C.12F12
B9: 15G7.2A7-hIgG4(S228P) (antibody, V domains shown)
VH: B4 VH with F32Y, I34M, K54N, I58T, P62Q, I66G, S79A, D82E, G85S
VL: DIQMNQSPSSLSASLGDTISITCRASQNINIWLSWYQQKPGNIPQLLIYKASNLHTGVPSRFSGSGSGTDFTLTISSLQPEDIATYYCLQGQSYPLTFGAGTKLVMK
notes: also called QC200074
B10: TB001 (antibody, V domains shown)
VH: QVQLVQSGSELKKPGASVKVSCKASGYTFTNYGMNWVRQAPGQGLKWMGWINTNTGEPTYVEEFTGRFVFSLETSVSTAYLQISSLKAEDTAVYFCAPYDNFFAYWGQGTTVTVSS
VL: DIVLTQSPLSLPVTPGEPASISCRSSKSLLYKDGKTYLNWFLQKPGQSPQLLIYLMSTHASGVPDRFSGSGSGTDFTLKISRVEAEDVGVYYCQQLVDYPLTFGGGTKLEIK
notes: also called hTB001; IMT001-4-HCLC (TB001)

Biological target: T1, Human Galectin-3 (Gal3) protein (human, UniProt P17931 1-250)
T1 construct: also called hGal3; rhGal-3
Test: competition ELISA, hGal3 coated; competitor: biotinylated hTGFβR2

T1 sequence (P17931 whole entry): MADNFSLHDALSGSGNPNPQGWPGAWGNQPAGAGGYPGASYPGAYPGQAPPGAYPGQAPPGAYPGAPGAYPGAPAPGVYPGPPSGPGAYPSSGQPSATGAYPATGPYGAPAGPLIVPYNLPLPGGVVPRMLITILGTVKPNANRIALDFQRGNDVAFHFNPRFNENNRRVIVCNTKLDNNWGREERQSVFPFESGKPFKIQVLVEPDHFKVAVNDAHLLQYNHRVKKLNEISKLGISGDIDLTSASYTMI

Row | Binder | blocking efficacy [%]
1 | B1 | > 90
2 | B2 | > 90
3 | B3 | > 90

Biological target: T1, Human Galectin-3 (Gal3) protein
Test: competition ELISA, hGal3 coated; competitor: biotinylated aggregated alpha-synuclein

Row | Binder | blocking efficacy [%]
4 | B1 | > 70
5 | B4 | > 70
6 | B5 | > 70
7 | B6 | > 70
8 | B7 | > 70
9 | B8 | > 70
10 | B9 | > 70
11 | B3 | > 70
12 | B10 | > 70

Reference: patent US20250026838A1 (TRUEBINDING, published 2025)
